Values belong to the binder of their own block, whether it stands above or below them. *1 amine or outer side, *2 acyl side, *3 side chain or, on linkers, in order; H or OH if unused. Side-chain parts run from the residue outwards. The star is where a group is joined. C18 diacid = O=C(O)CCCCCCCCCCCCCCCCC(=O)*; γGlu = O=C(O)[C@H](CCC(=O)[*:2])N[*:1]; Isovaleryl = CC(C)CC(=O)*; AEEA = NCCOCCOCC(=O)O
What was measured:
[1] = biological target: T1, human neuropeptide Y2 receptor (human, UniProt P49146 1-381); experiment: radioligand competition (125I-PYY(1-36)), hNPY2R membranes
T1 construct: whole, on cells; also called hNPY2 receptor; hNPY2-R
T1 sequence (looked up): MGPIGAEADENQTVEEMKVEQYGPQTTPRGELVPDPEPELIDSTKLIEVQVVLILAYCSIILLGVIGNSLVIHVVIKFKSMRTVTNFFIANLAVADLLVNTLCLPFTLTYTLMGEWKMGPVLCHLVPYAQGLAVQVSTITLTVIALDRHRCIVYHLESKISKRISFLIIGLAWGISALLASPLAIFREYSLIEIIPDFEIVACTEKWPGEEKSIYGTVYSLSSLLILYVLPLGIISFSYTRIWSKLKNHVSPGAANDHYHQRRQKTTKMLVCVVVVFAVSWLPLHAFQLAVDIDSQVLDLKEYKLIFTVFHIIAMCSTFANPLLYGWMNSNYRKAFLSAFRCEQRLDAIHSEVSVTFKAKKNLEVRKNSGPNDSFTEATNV
Outline: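 Commercial human Y2 receptor membranes (0.5 μg protein/well) were incubated with peptide for 2 h at room temperature in 50 mM HEPES, 5 mM MgCl₂, 1 mM CaCl₂, pH 7.4, with 0.2% ovalbumin. Bound radioligand was separated on PEI-soaked GF/C filters and counted by scintillation, and IC₅₀ came from nonlinear sigmoidal regression.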

[2] = biological target: T1, human neuropeptide Y2 receptor; experiment: cell-based or functional assay
[3] = biological target: T2, human NPY5 receptor (human, UniProt Q15761 1-445); experiment: cell-based or functional assay
T2 sequence (looked up): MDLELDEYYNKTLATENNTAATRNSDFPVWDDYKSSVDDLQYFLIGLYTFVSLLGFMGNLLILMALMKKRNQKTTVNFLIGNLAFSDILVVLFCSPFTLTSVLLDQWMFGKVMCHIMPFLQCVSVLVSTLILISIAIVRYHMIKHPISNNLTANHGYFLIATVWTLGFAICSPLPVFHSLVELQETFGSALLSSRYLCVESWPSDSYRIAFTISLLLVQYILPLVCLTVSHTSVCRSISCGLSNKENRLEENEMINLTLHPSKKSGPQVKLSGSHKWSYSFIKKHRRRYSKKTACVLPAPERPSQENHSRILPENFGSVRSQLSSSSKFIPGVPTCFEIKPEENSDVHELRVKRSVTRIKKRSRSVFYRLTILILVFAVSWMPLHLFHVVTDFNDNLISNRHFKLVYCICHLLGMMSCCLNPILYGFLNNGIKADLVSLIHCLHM

[4] = biological target: human NPY4 receptor (human, UniProt P50391 1-375); experiment: cell-based or functional assay
human NPY4 receptor, sequence (P50391 whole entry): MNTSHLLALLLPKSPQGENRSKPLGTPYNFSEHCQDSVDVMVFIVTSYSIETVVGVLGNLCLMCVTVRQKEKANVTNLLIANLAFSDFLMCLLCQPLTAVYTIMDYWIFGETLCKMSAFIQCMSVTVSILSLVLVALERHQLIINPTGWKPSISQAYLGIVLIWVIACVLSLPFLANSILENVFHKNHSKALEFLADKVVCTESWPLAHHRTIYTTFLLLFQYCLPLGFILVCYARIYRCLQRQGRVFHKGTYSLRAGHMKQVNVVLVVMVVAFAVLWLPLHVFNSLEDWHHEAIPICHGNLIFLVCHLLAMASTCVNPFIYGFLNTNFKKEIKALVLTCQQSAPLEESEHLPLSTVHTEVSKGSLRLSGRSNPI

[5] = biological target: T3, human NPY1 receptor (human, UniProt P25929 1-384); experiment: cell-based or functional assay
T3 sequence (looked up): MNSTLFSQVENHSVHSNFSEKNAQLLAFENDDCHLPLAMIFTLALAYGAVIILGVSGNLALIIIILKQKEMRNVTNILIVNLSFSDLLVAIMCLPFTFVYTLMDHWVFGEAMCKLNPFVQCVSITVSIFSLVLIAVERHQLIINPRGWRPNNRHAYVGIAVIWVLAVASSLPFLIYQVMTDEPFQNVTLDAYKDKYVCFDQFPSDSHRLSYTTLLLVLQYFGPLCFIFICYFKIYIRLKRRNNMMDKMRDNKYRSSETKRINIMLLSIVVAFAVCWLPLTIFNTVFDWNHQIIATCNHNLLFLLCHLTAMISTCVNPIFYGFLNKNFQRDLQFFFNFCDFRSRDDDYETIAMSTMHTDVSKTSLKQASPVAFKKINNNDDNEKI

B1: Compound 54 (peptide)
peptide: Isovaleryl-APEK([AEEA-AEEA-γGlu-C18 diacid])PEEDASPEELQRYYVSLRHYYNWLTRQRY-NH2
SMILES: CC(C)CC(=O)N[C@@H](C)C(=O)N1CCC[C@H]1C(=O)N[C@@H](CCC(=O)O)C(=O)N[C@@H](CCCCNC(=O)COCCOCCNC(=O)COCCOCCNC(=O)CC[C@H](NC(=O)CCCCCCCCCCCCCCCCC(=O)O)C(=O)O)C(=O)N1CCC[C@H]1C(=O)N[C@@H](CCC(=O)O)C(=O)N[C@@H](CCC(=O)O)C(=O)N[C@@H](CC(=O)O)C(=O)N[C@@H](C)C(=O)N[C@@H](CO)C(=O)N1CCC[C@H]1C(=O)N[C@@H](CCC(=O)O)C(=O)N[C@@H](CCC(=O)O)C(=O)N[C@@H](CC(C)C)C(=O)N[C@@H](CCC(N)=O)C(=O)N[C@@H](CCCNC(=N)N)C(=O)N[C@@H](Cc1ccc(O)cc1)C(=O)N[C@@H](Cc1ccc(O)cc1)C(=O)N[C@H](C(=O)N[C@@H](CO)C(=O)N[C@@H](CC(C)C)C(=O)N[C@@H](CCCNC(=N)N)C(=O)N[C@@H](Cc1c[nH]cn1)C(=O)N[C@@H](Cc1ccc(O)cc1)C(=O)N[C@@H](Cc1ccc(O)cc1)C(=O)N[C@@H](CC(N)=O)C(=O)N[C@@H](Cc1c[nH]c2ccccc12)C(=O)N[C@@H](CC(C)C)C(=O)N[C@H](C(=O)N[C@@H](CCCNC(=N)N)C(=O)N[C@@H](CCC(N)=O)C(=O)N[C@@H](CCCNC(=N)N)C(=O)N[C@@H](Cc1ccc(O)cc1)C(N)=O)[C@@H](C)O)C(C)C
Ki [1]: 0.95 nM | EC50 (HTRF cAMP Gi assay) [2]: 0.131 nM | EC50 (HTRF cAMP Gi assay) [3]: > 5000 nM | EC50 (HTRF cAMP Gi assay) [4]: > 5000 nM | EC50 (HTRF cAMP Gi assay) [5]: > 5000 nM

B3: Compound 242 (peptide)
peptide: Isovaleryl-APEK([AEEA-AEEA-γGlu-C18 diacid])PEADASAEELQRYYVSLRHYYNWLTRQRY-NH2
SMILES: CC(C)CC(=O)N[C@@H](C)C(=O)N1CCC[C@H]1C(=O)N[C@@H](CCC(=O)O)C(=O)N[C@@H](CCCCNC(=O)COCCOCCNC(=O)COCCOCCNC(=O)CC[C@H](NC(=O)CCCCCCCCCCCCCCCCC(=O)O)C(=O)O)C(=O)N1CCC[C@H]1C(=O)N[C@@H](CCC(=O)O)C(=O)N[C@@H](C)C(=O)N[C@@H](CC(=O)O)C(=O)N[C@@H](C)C(=O)N[C@@H](CO)C(=O)N[C@@H](C)C(=O)N[C@@H](CCC(=O)O)C(=O)N[C@@H](CCC(=O)O)C(=O)N[C@@H](CC(C)C)C(=O)N[C@@H](CCC(N)=O)C(=O)N[C@@H](CCCNC(=N)N)C(=O)N[C@@H](Cc1ccc(O)cc1)C(=O)N[C@@H](Cc1ccc(O)cc1)C(=O)N[C@H](C(=O)N[C@@H](CO)C(=O)N[C@@H](CC(C)C)C(=O)N[C@@H](CCCNC(=N)N)C(=O)N[C@@H](Cc1c[nH]cn1)C(=O)N[C@@H](Cc1ccc(O)cc1)C(=O)N[C@@H](Cc1ccc(O)cc1)C(=O)N[C@@H](CC(N)=O)C(=O)N[C@@H](Cc1c[nH]c2ccccc12)C(=O)N[C@@H](CC(C)C)C(=O)N[C@H](C(=O)N[C@@H](CCCNC(=N)N)C(=O)N[C@@H](CCC(N)=O)C(=O)N[C@@H](CCCNC(=N)N)C(=O)N[C@@H](Cc1ccc(O)cc1)C(N)=O)[C@@H](C)O)C(C)C
Ki [1]: 0.81 nM

B5: Compound 243 (peptide)
peptide: Isovaleryl-APEK([AEEA-AEEA-γGlu-C18 diacid])PEEEASPEELQQYYVSLRHYYNWLTRQRY-NH2
SMILES: CC(C)CC(=O)N[C@@H](C)C(=O)N1CCC[C@H]1C(=O)N[C@@H](CCC(=O)O)C(=O)N[C@@H](CCCCNC(=O)COCCOCCNC(=O)COCCOCCNC(=O)CC[C@H](NC(=O)CCCCCCCCCCCCCCCCC(=O)O)C(=O)O)C(=O)N1CCC[C@H]1C(=O)N[C@@H](CCC(=O)O)C(=O)N[C@@H](CCC(=O)O)C(=O)N[C@@H](CCC(=O)O)C(=O)N[C@@H](C)C(=O)N[C@@H](CO)C(=O)N1CCC[C@H]1C(=O)N[C@@H](CCC(=O)O)C(=O)N[C@@H](CCC(=O)O)C(=O)N[C@@H](CC(C)C)C(=O)N[C@@H](CCC(N)=O)C(=O)N[C@@H](CCC(N)=O)C(=O)N[C@@H](Cc1ccc(O)cc1)C(=O)N[C@@H](Cc1ccc(O)cc1)C(=O)N[C@H](C(=O)N[C@@H](CO)C(=O)N[C@@H](CC(C)C)C(=O)N[C@@H](CCCNC(=N)N)C(=O)N[C@@H](Cc1c[nH]cn1)C(=O)N[C@@H](Cc1ccc(O)cc1)C(=O)N[C@@H](Cc1ccc(O)cc1)C(=O)N[C@@H](CC(N)=O)C(=O)N[C@@H](Cc1c[nH]c2ccccc12)C(=O)N[C@@H](CC(C)C)C(=O)N[C@H](C(=O)N[C@@H](CCCNC(=N)N)C(=O)N[C@@H](CCC(N)=O)C(=O)N[C@@H](CCCNC(=N)N)C(=O)N[C@@H](Cc1ccc(O)cc1)C(N)=O)[C@@H](C)O)C(C)C
Ki [1]: 2.07 nM

The remaining lines, values ahead:

Ki [1]: 2.95 nM
B2: Compound 241 (peptide)
peptide: Isovaleryl-APEK([AEEA-AEEA-γGlu-C18 diacid])PEEEASPEEIQRYYVSLRHYYNWLTRQRY-NH2
SMILES: CC[C@H](C)[C@H](NC(=O)[C@H](CCC(=O)O)NC(=O)[C@H](CCC(=O)O)NC(=O)[C@@H]1CCCN1C(=O)[C@H](CO)NC(=O)[C@H](C)NC(=O)[C@H](CCC(=O)O)NC(=O)[C@H](CCC(=O)O)NC(=O)[C@H](CCC(=O)O)NC(=O)[C@@H]1CCCN1C(=O)[C@H](CCCCNC(=O)COCCOCCNC(=O)COCCOCCNC(=O)CC[C@H](NC(=O)CCCCCCCCCCCCCCCCC(=O)O)C(=O)O)NC(=O)[C@H](CCC(=O)O)NC(=O)[C@@H]1CCCN1C(=O)[C@H](C)NC(=O)CC(C)C)C(=O)N[C@@H](CCC(N)=O)C(=O)N[C@@H](CCCNC(=N)N)C(=O)N[C@@H](Cc1ccc(O)cc1)C(=O)N[C@@H](Cc1ccc(O)cc1)C(=O)N[C@H](C(=O)N[C@@H](CO)C(=O)N[C@@H](CC(C)C)C(=O)N[C@@H](CCCNC(=N)N)C(=O)N[C@@H](Cc1c[nH]cn1)C(=O)N[C@@H](Cc1ccc(O)cc1)C(=O)N[C@@H](Cc1ccc(O)cc1)C(=O)N[C@@H](CC(N)=O)C(=O)N[C@@H](Cc1c[nH]c2ccccc12)C(=O)N[C@@H](CC(C)C)C(=O)N[C@H](C(=O)N[C@@H](CCCNC(=N)N)C(=O)N[C@@H](CCC(N)=O)C(=O)N[C@@H](CCCNC(=N)N)C(=O)N[C@@H](Cc1ccc(O)cc1)C(N)=O)[C@@H](C)O)C(C)C

Ki [1]: 1.84 nM
B4: Compound 244 (peptide)
peptide: Isovaleryl-APEK([AEEA-AEEA-γGlu-C18 diacid])PEEDAEPAELQRYYVSLRHYYNWLTRQRY-NH2
SMILES: CC(C)CC(=O)N[C@@H](C)C(=O)N1CCC[C@H]1C(=O)N[C@@H](CCC(=O)O)C(=O)N[C@@H](CCCCNC(=O)COCCOCCNC(=O)COCCOCCNC(=O)CC[C@H](NC(=O)CCCCCCCCCCCCCCCCC(=O)O)C(=O)O)C(=O)N1CCC[C@H]1C(=O)N[C@@H](CCC(=O)O)C(=O)N[C@@H](CCC(=O)O)C(=O)N[C@@H](CC(=O)O)C(=O)N[C@@H](C)C(=O)N[C@@H](CCC(=O)O)C(=O)N1CCC[C@H]1C(=O)N[C@@H](C)C(=O)N[C@@H](CCC(=O)O)C(=O)N[C@@H](CC(C)C)C(=O)N[C@@H](CCC(N)=O)C(=O)N[C@@H](CCCNC(=N)N)C(=O)N[C@@H](Cc1ccc(O)cc1)C(=O)N[C@@H](Cc1ccc(O)cc1)C(=O)N[C@H](C(=O)N[C@@H](CO)C(=O)N[C@@H](CC(C)C)C(=O)N[C@@H](CCCNC(=N)N)C(=O)N[C@@H](Cc1c[nH]cn1)C(=O)N[C@@H](Cc1ccc(O)cc1)C(=O)N[C@@H](Cc1ccc(O)cc1)C(=O)N[C@@H](CC(N)=O)C(=O)N[C@@H](Cc1c[nH]c2ccccc12)C(=O)N[C@@H](CC(C)C)C(=O)N[C@H](C(=O)N[C@@H](CCCNC(=N)N)C(=O)N[C@@H](CCC(N)=O)C(=O)N[C@@H](CCCNC(=N)N)C(=O)N[C@@H](Cc1ccc(O)cc1)C(N)=O)[C@@H](C)O)C(C)C

EC50 (HTRF cAMP Gi assay) [3]: > 5000 nM | EC50 (HTRF cAMP Gi assay) [4]: > 5000 nM | EC50 (HTRF cAMP Gi assay) [5]: > 5000 nM
Binder: Isovaleryl-APEK([AEEA-AEEA-γGlu-C18 diacid])PEEDATPEEIQRYYVSLRHYYNWLTRQRY-NH2 [Compound 171]

Source: patent publication US20210139548A1 (published 2021)
